Results: article PMC8786652 (Cell reports, 2022)

Target: recombinant stabilized SARS-CoV-2 Spike ectodomain (S-6P, HexaPro Spike), his-tagged (SARS-CoV-2, Wuhan-Hu-1 (HexaPro …, stabilised))
Experiment: SPR

B1: CV3-13 Fab (Fab, V domains shown)
VH: QVQLQQSGPGLVKPSQTLSLTCTVAGGSISSGTYYWSWIRQPAGKGLEWIGRIYTSGSANYNPSLKSRVTISVDTSKNQFSLRLSSVTAEDTAVYYCAREYSSSYYYFYYMDVWGKGTTVTVSS
VL: AIRMTQSPSSLSASVGDRVTITCQASQDISNYLNWYQQKPGKAPKLLIYVASNLETGVPSRFSGSGFGTDFTFTISSLQPEDIATYYCQQFDNLPYTFGQGTKLEIK
For B1, the Kd was roughly 55 nM.
